Here are results for five compounds from paper PMC9835603, “A conserved SH3-like fold in diverse putative proteins tetramerizes into an oxidoreductase providing an antimicrobial resistance phenotype” (Philosophical Transactions of the Royal Society B: …, 2023).

Data set [1] has as its target T1, DfrB-H5 (Methylobacterium pseudosasicola, UniProt A0A1I4V6W3).
T1 construct: gene SAMN05192568_10896; full-length 365-residue protein, N-terminal His6 tag
Put plainly: dihydrofolate reductase activity assay at […] nm with purified enzyme; Ki from IC50 by Cheng-Prusoff. The format is biochemical.

Data set [2] concerns NC(=O)C1=CN([C@@H]2O[C@H](COP(=O)(O)OP(=O)(O)OC[C@H]3O[C@@H](n4cnc5c(N)ncnc54)[C@H](OP(=O)(O)O)[C@@H]3O)[C@@H](O)[C@H]2O)C=CC1. The data set is described as follows: steady-state kinetics (KM) with purified enzyme. It counts as biochemical, Escherichia coli. The following applies: varied: cofactor.
Data set [3] addresses DfrB-H5 (distant DfrB homologue from Methylobacterium pseudosasicola) (Methylobacterium pseudosasicola). The data set is described as follows: negative-stain electron microscopy; purified protein from a single gel filtration peak, 40 ng/ul, uranyl formate stain, two-dimensional classification. Background: SEC sorts molecules by how far they enter the pores of the column.
For data set [4] the target is unchanged. The data set is described as above. The source holds these as a separate data set.
In data set [5] the target is His6-DfrB1 (type B dihydrofolate reductase DfrB1). Put plainly: SEC-MALS; SEC-MALLS; Superdex 200 10/300 GL for DfrB-H5, Superdex 75 10/300 GL for DfrB1, 0.4 ml/min.
The target is the same in data set [6]. Put plainly: negative-stain electron microscopy; purified protein from a single gel filtration peak, 40 ng/ul, uranyl formate stain, two-dimensional classification.

“And” between values parts separate entries of the source, which are not always exact repeats. Identical values can stand only once. Like-named read-outs stand apart in the source and are kept apart here.

As for `O=C(O)c1ccc2[nH]c(-c3ccc(OCCCCCOc4ccc(-c5nc6cc(C(=O)O)ccc6[nH]5)cc4)cc3)nc2c1` [compound 1, 2,2′-[1,5-pentanediylbis(4-oxyphenylene)]-bis-1H-benzimidazole-5-carboxylic acid], the Ki in data set [1] (read-out: 1 / Ki) came to 12 ± 6 µM.
Turning to `CC1(C)Nc2nc(N)[nH]c(=O)c2N=C1C(=O)NCCN1CCC(SC[C@H]2O[C@@H](n3cnc4c(N)ncnc43)[C@H](O)[C@@H]2O)CC1` [compound 2, 2-amino-N-(2-(4-((((2S,3S,4R,5R)-5-(6-amino-9H-purin-9-yl)-3,4-dihydroxytetrahydrofuran-2-yl)methyl)thio)piperidin-1-yl)ethyl)-7,7-dimethyl-4-oxo-3,4,7,8-tetrahydropteridine-6-carboxamide], in data set [1] (read-out: 2 / Ki), the Ki came out at 30 ± 10 µM.
The Km is the substrate concentration at which the rate is half of its maximum. With DfrB1 (Escherichia coli; Y69L), in data set [2], the Km stood at 170 ± 20 µM.
As usually defined, the stoichiometry N is the number of molecules, sites or subunits per partner or assembly. As for “DfrB-H5 (distant DfrB homologue from Methylobacterium pseudosasicola) (enzyme)”, the stoichiometry N in data set [3] was 2 and 3; in data set [4], 4.
For the compound “His6-DfrB1 (type B dihydrofolate reductase DfrB1) (enzyme)”, the stoichiometry N in data set [5] and in data set [6] was 4 throughout.
